In data set [1] the test system is c-MYC. The class given is cell-based, human.
In another data set the test system is MB49 bladder tumors. The following applies: mouse, in vivo.
For data set [2], the system named is CK1α1. The class given is cell-based, human.
Data set [3] deals with CK1α1 (Homo sapiens, UniProt P48729).
Procedure: Kidney epithelial cells were stained with rabbit anti-c-MYC (Abcam), rabbit anti-CK1α1 (Cell Signaling Technology), rabbit anti-c-MYB (Sigma Aldrich), rabbit anti-CEBPD (Abcam) or mouse anti-his6-tag primary antibodies (1:200 in 5% FBS/PBS, overnight at 4° C.), followed by secondary goat anti-rabbit Alexa Fluor 488-conjugated or goat-anti mouse Alexa Fluor 568-conjugated antibodies (Molecular Probes, A-11034) (1:200 in 5% FBS and 0.025% Triton X-100/PBS, 1 hour at room temperature). Cells were counterstained with DRAQ5 (Abcam) and examined using a LSM 510 META laser scanning confocal microscope (Carl Zeiss). Fluorescence signal was quantified in 50 cells per condition using Image J.
Cells were lysed with NP-40 lysis buffer supplemented with protease and phosphatase inhibitors (Roche diagnostics). Proteins were run on SDS-PAGE (4-12% Bis-Tris gels, Invitrogen), blotted onto PVDF membranes (Biorad), blocked and stained with primary rabbit anti-c-MYC (1:1000, Abcam), rabbit anti-CK1α1 (1:1000, Cell Signaling Technology) or rabbit-anti-Lon (1:2000, Biorbyt) overnight at 4° C. Membranes were washed and stained with HRP-conjugated goat anti-rabbit HRP conjugated secondary antibodies (1:4000, Cell Signaling) washed again, imaged using ECL plus detection reagent (GE Healthcare) and quantified by ImageJ. β-actin was used as a loading control.
For data set [4], the system named is A498 kidney epithelial cells. The class given is cell-based, human.
The target of data set [5] is T1, c-MYC (Homo sapiens, UniProt P01106).
T1 construct: GST
T1 sequence (P01106 16-454): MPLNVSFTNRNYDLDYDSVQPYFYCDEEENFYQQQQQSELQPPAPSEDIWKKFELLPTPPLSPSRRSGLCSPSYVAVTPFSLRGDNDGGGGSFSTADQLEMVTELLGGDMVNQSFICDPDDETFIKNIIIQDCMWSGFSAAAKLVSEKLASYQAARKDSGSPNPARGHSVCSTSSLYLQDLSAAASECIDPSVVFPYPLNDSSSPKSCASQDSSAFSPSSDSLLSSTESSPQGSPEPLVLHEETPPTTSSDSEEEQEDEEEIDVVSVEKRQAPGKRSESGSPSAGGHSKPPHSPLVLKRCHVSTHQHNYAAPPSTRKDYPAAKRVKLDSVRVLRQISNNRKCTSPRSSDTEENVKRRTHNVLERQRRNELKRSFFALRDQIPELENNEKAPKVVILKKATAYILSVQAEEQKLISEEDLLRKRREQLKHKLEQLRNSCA
The data set can be described thus: In vitro degradation assay of recombinant c-MYC by Lon protease. The class given is biochemical. As for the experimental part:
[…] Proteins were incubated at 37° C. for 60, 120 or 240 minutes and were denatured using 10 mM DTT in NuPAGE Sample Buffer at 100° C. for 5 minutes before further analysis.
Samples were diluted with NuPAGE LDS sample buffer (Invitrogen) mixed with 10 mM dithiotreitol (DTT) and incubated at 56° C. for 20 min followed by addition of iodoacetamide (IAA) to a final concentration of 20 mM. Samples were loaded on 4-12% NuPAGE (Invitrogen). The electrophoresis was run in MOPS buffer. The gel was Coomassie stained and bands of interest were excised from the SDS-PAGE and trypsin digested, followed by identification using LC-MS/MS as per above. MS/MS spectra were investigated with PEAKS (version 10) against UniProt Human (released 2020 Feb. 21) where the sequence for GST-tag-MYC had been added. The precursor tolerance and fragment tolerance were set to 10 ppm and 0.05 Da, respectively. None enzyme was selected, methionine oxidation and deamidation of asparagine and glutamine were treated as dynamic modification and carbamidomethylation of cysteine as a fixed modification.

The target in data set [6] is T2, MAX (Homo sapiens, UniProt P61244). It counts as binding.
T2 sequence (P61244 whole entry, species assumed): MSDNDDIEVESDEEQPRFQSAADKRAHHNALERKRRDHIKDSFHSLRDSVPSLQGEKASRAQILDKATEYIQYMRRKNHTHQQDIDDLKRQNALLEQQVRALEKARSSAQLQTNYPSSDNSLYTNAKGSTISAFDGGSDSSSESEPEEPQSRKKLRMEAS
For data set [7] the following is noted: mouse, in vivo.
The conditions of data set [8]: mouse, in vivo. The source holds these as a separate data set.
Another data set concerns intestinal polyps. Also noted: species or system C57BL/6J-APC^min/J mice. The following applies: mouse, in vivo.
A further data set concerns CEBP-δ. The class given is cell-based, human.
For a further data set, the target named is CBEB1 (Homo sapiens, UniProt Q9BZB8). Nature of the data set: In vitro degradation assay, CPEB1. The class given is biochemical. As for the experimental part:
(§1) 0.1 μg of recombinant proteins were incubated with 0.2 μg of Lon protease (Abcam, ab141921), or PBS, in a reaction buffer consisting of 20 mM MgCl2 in the presence of ATP (2 mM) in 50 mM Tris. pH 8.0. Proteins were incubated at 37° C. for 60, 120 or 240 minutes and were denatured using 10 mM DTT in NuPAGE Sample Buffer at 100° C. for 5 minutes before further analysis.

The next data set has as its system HH3. It counts as biochemical.
The target of data set [9] is T2, MAX. The data set can be described thus: In vitro degradation assay, MAX. It counts as biochemical. As for the experimental part:
as §1

The next data set deals with AKT. The class given is biochemical.
The next data set concerns the target CDK9 (Homo sapiens, UniProt P50750). Nature of the data set: In vitro degradation assay, CDK9. The class given is biochemical. The procedure:
as §1

The target of the next data set is GRP75 (Homo sapiens, UniProt P38646). The data set can be described thus: In vitro degradation assay, GRP75. It counts as biochemical. As for the experimental part: as §1
GRP75, sequence (P38646 47-679, species assumed): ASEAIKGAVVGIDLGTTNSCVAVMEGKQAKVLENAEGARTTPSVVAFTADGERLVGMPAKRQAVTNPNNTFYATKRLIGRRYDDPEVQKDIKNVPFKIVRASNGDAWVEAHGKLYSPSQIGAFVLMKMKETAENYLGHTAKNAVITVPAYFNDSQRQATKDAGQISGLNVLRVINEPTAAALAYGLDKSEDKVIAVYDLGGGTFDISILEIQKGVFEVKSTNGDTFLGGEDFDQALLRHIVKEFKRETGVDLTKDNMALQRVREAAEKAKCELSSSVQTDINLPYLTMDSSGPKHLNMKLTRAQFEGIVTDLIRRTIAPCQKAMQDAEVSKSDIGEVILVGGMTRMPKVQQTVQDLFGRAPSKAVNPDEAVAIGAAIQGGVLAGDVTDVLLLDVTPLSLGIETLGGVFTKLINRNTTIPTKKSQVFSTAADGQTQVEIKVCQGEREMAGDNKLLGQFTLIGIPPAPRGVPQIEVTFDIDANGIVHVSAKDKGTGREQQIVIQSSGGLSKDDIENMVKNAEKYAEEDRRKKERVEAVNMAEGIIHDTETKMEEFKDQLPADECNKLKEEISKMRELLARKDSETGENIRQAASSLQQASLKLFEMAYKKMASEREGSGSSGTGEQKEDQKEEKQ
A further data set deals with Actin. The class given is biochemical.
In a further data set the test system is c-MYB. It counts as cell-based, human.
The test system of data set [10] is c-MYC. The class given is cell-based, human. The source holds these as a separate data set.
In data set [11] the target is T1, c-MYC. It counts as binding.

Where “and” joins values, the source holds several entries; their conditions need not be identical. Equal entries are not always repeated. Entries after “also recorded” stand apart in the source; their conditions may differ. Marks after values point to notes of the source that are not given here.

CK1α1 (Homo sapiens, UniProt P48729), sequence (P48729 whole entry): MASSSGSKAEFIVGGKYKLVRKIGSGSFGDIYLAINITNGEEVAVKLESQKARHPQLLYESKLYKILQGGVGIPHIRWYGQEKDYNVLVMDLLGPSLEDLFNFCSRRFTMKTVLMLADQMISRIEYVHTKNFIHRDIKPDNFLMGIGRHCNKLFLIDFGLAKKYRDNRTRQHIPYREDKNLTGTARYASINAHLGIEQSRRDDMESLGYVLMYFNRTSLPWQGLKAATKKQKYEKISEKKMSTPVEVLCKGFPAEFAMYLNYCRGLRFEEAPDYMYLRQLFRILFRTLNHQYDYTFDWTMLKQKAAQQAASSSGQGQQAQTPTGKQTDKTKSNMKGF
CDK9, sequence (P50750 whole entry, species assumed): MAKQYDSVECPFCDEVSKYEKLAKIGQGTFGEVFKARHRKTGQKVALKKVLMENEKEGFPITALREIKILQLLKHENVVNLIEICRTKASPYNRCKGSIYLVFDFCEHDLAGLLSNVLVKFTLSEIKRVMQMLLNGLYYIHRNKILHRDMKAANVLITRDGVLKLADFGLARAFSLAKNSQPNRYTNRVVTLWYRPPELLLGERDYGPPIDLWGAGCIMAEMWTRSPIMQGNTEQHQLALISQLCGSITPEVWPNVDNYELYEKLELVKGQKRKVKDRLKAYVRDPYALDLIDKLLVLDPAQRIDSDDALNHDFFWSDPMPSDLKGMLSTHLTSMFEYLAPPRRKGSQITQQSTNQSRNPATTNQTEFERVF
CBEB1, sequence (Q9BZB8 whole entry): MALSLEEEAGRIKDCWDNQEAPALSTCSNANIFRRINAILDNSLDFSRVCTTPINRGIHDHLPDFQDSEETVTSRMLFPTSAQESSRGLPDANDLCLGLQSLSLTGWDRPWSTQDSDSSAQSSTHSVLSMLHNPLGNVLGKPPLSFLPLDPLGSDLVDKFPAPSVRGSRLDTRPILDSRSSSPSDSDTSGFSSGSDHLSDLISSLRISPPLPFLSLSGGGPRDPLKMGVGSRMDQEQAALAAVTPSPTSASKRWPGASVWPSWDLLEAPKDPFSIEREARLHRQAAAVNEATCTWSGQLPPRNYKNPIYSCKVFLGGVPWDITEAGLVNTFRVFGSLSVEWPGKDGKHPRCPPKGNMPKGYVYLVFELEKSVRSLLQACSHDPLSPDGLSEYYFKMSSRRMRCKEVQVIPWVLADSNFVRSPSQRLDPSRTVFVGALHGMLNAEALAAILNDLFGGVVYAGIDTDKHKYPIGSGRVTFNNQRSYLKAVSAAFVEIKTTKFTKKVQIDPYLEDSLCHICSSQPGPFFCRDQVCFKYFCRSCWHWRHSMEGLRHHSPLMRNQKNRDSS

Take `[Cl][Mn][Cl]` [MnCl2]: the “Effect of metal ion pretreatment of E. coli 536 on c-MYC inhibition” value (“Effect … on c-MYC inhibition” below) in the data set on c-MYC [1] was “no effect”.

Consider `[Cl-].[Cl-].[Mg+2]` [MgCl2], for which, in the data set on c-MYC [1], the “Effect … on c-MYC inhibition” value is “no effect”.

Consider `COc1cccc2c1C(=O)c1c(O)c3c(c(O)c1C2=O)C[C@@](O)(C(=O)CO)C[C@@H]3O[C@H]1C[C@H](N)[C@@H](O)[C@H](C)O1` [Epirubicin, reference compound], for which, in the data set on MB49 bladder tumors, the “Bladder size % Sham (range)” value is 65 (53-70)^b % Sham and the “Bladder weight g^−1 (range)” value is listed as 3.9 (3.2-4.8)^b g^−1.

For the molecule `O=C(O)CN(CCOCCOCCN(CC(=O)O)CC(=O)O)CC(=O)O` [EGTA, Egtazic acid], in the data set with CK1α1 [2], the “Effect on CK1α1 activation” value is recorded as “inhibited the activation of CK1α1”.

Regarding `CO[C@@]12[C@H](COC(N)=O)C3=C(C(=O)C(C)=C(N)C3=O)N1C[C@@H]1N[C@@H]12` [Mitomycin, reference compound], in the data set on MB49 bladder tumors, the “Bladder size % Sham (range)” value is recorded as 67 (54-87)^b % Sham and the “Bladder weight g^−1 (range)” value is 4 (3.4-5.9)^b g^−1.

`[Cl-].[Cl-].[Zn+2]` [ZnCl2]: in the data set on c-MYC [1], the “Effect … on c-MYC inhibition” value is given as “reversed c-MYC inhibition” and the “Effect of treating the active E. coli 536 supernatant on MYC levels in host cells” value is given as “did not affect MYC levels in host cells”.

With `COc1cc(OC)c(C=C2C(O)=Nc3ccccc32)c(OC)c1` [IC261], at CK1α1 [3] (100 μg/ml, 30 minutes pre-treatment, E. coli 536), the “Effect on c-MYC degradation in infected cells” value is recorded as “reduced c-MYC degradation”. The “Effect on c-MYB inhibition by E. coli 536” value at CK1α1 [3] (30 minutes) is listed as “reversed c-MYB inhibition”.

As for `O=C(N/N=C/c1ccc(O)c(O)c1)c1cc2ccccc2cc1O` [Dynasore], the “Lon protease staining and uptake after endocytosis inhibitor pre-treatment” value in [4] was “reduced Lon protease staining and uptake”.

As to `[Ca+2].[Cl-].[Cl-]` [CaCl2], the “Effect … on c-MYC inhibition” value in the data set with c-MYC [1] is “no effect”.

With `O=c1c(O)c(-c2ccc(O)c(O)c2)oc2cc(O)cc(O)c12` [Quercetin], the “Lon protease staining and uptake after endocytosis inhibitor pre-treatment” value in [4] is “reduced Lon protease staining and uptake”.

B1: Lon protease: Recombinant bacterial (E. coli) ATP-dependent serine peptidase Lon, commercially produced in E. coli K12 (protein, UniProt P0A9M0 2-784, looked up)
Lon protease: NPERSERIEIPVLPLRDVVVYPHMVIPLFVGREKSIRCLEAAMDHDKKIMLVAQKEASTDEPGVNDLFTVGTVASILQMLKLPDGTVKVLVEGLQRARISALSDNGEHFSAKAEYLESPTIDEREQEVLVRTAISQFEGYIKLNKKIPPEVLTSLNSIDDPARLADTIAAHMPLKLADKQSVLEMSDVNERLEYLMAMMESEIDLLQVEKRIRNRVKKQMEKSQREYYLNEQMKAIQKELGEMDDAPDENEALKRKIDAAKMPKEAKEKAEAELQKLKMMSPMSAEATVVRGYIDWMVQVPWNARSKVKKDLRQAQEILDTDHYGLERVKDRILEYLAVQSRVNKIKGPILCLVGPPGVGKTSLGQSIAKATGRKYVRMALGGVRDEAEIRGHRRTYIGSMPGKLIQKMAKVGVKNPLFLLDEIDKMSSDMRGDPASALLEVLDPEQNVAFSDHYLEVDYDLSDVMFVATSNSMNIPAPLLDRMEVIRLSGYTEDEKLNIAKRHLLPKQIERNALKKGELTVDDSAIIGIIRYYTREAGVRGLEREISKLCRKAVKQLLLDKSLKHIEINGDNLHDYLGVQRFDYGRADNENRVGQVTGLAWTEVGGDLLTIETACVPGKGKLTYTGSLGEVMQESIQAALTVVRARAEKLGINPDFYEKRDIHVHVPEGATPKDGPSAGIAMCTALVSCLTGNPVRADVAMTGEITLRGQVLPIGGLKEKLLAAHRGGIKTVLIPFENKRDLEEIPDNVIADLDIHPVKRIEEVLTLALQNEPSGMQVVTAK
Take B1: the “c-MYC degradation, comparative analysis of protein degradation” value with c-MYC [5] (FIG. 17i) was “degraded after 3 hours”. Also, the “c-MYC remaining after Lon dependent degradation” value with c-MYC [5] (Recombinant c-MYC (1 μg) with Lon protease (2 μg), 37° C., 0 to 4 hours, from 200 ng, n=3) was found to be 79 ng. Also, in the data set with c-MYC [5] (control sample 23 peptides), the “Number of specific c-MYC peptides found after rLon degradation (LC-MS/MS)” value turned out to be 10. In addition, the “c-MYC sequence covered by specific peptides after rLon degradation (LC-MS/MS)” value with c-MYC [5] (control sample 51%) was determined as 23%. Further, in the data set with c-MYC [5] (recombinant c-MYC, kinetics), the “c-MYC degradation in vitro” value is “degrade recombinant c-MYC in vitro, in a time dependent manner”. For the same molecule, the “Pull-down of recombinant MAX” value in the data set with MAX [6] was “Weak pull-down”. In data set [7], this molecule had an MYC-related genes activated of 1 and an MYC-related genes inhibited of 8. Moreover, in data set [7] (po), the “Body weight and macroscopic appearance of organs” value was “No change”; the “MYC expression in intestines” value is on record as “not regulated”. In data set [8], the “Bladder weight and macroscopic appearance of the bladder” value is given as “No change”; the “MYC expression in bladders” value is recorded as “not regulated”; the MYC-dependent genes activated was determined as 33; the MYC-dependent genes inhibited amounted to 1. Also, in the data set on intestinal polyps, the “Body weight at long-term follow up compared to sham” value was “increase”, the “Cancer gene networks as share of all regulated genes” value is 93%, the “Day until which mice remained asymptomatic” value was 175 days and the “Intestinal polyp number at long-term follow up compared to sham” value is “significant reduction”. In addition, in the data set on intestinal polyps, the “MYC expression and MYC-dependent gene networks” value is recorded as “inhibited”; the “Polyp number compared to sham and pre-treatment samples” value is listed as “reduced the polyp number”; the “Subset of colorectal cancer genes” value is given as 54%; the “Survival (Kaplan Mayer plot)” value is given as “increased survival”. Further, the CEBP-δ degradation with CEBP-δ is given as < 5%. The “Degradation of CBEB1 in vitro” value with CBEB1 is listed as “not degraded”. For the same molecule, the “Degradation of HH3 in vitro” value in the data set with HH3 is “not degraded”. Besides, the “Degradation of MAX in vitro” value with MAX [9] is given as “not detected”. The “Cytotoxic effects in human kidney cells” value in the data set on human kidney cells is reported as “not detected”. The “Degradation of AKT in vitro” value in the data set with AKT is reported as “not degraded”. For the same molecule, the “Degradation of CDK9 in vitro” value with CDK9 is on record as “not degraded”. For the same molecule, in the data set with GRP75, the “Degradation of GRP75 in vitro” value is “not degraded”. Moreover, in the data set with Actin, the “Degradation of Actin in vitro” value is recorded as “not degraded”. In the data set with c-MYB, the “c-MYB decrease compared to PBS” value was determined as 45%. For the same molecule, in the data set with c-MYC [10], the “c-MYC staining in human kidney cells” value was “dose-dependent decrease”. In addition, in the data set with MB49 bladder tumors, the “Bladder size % Sham (range)” value is 69 (53-85)^a % Sham; the “Bladder size, weight and pathology compared to day 12” value is on record as “remained unchanged”; the “Bladder weight g^−1 (range)” value is recorded as 5.3 (3.9-6.3)^a g^−1; the “Bladder weights and pathology scores versus sham” value is listed as “remained lower than in the sham group”. Besides, in the data set on MB49 bladder tumors, the “Cancer gene networks as share of all regulated genes, compared to sham” value was 96.6%; the “Day until which mice remained asymptomatic” value is 27 days and 34 days; the “Efficiency compared with E. coli 536 supernatant (tumor progression, gene expression)” value is “more efficient”; the “Expression of genes potentially involved in toxicity, compared with E. coli 536-treated mice” value is “less strongly expressed”. In addition, in the data set with MB49 bladder tumors, the “Gene expression inhibited compared to the sham group” value is given as 95%; the “Mice with bladder tumors present” value is given as 15/15; the Mice with hematuria is 3/15 and 2/12; the “Subset of bladder cancer related genes inhibited” value worked out at 11.8%. The “Survival (Kaplan Meyer plot)” value with MB49 bladder tumors is “increased survival”. Further, the “Binding to c-MYC by co-immunoprecipitation” value with c-MYC [11] is “verified; also recorded: dose-dependent”.

The values above are taken from US20250388889A1 (priority 2019, published 2025).
